Consider 4 molecules from patent US20160347831A1 (F HOFFMAN LA ROCHE, published 2016).

B2: VHH R3VQ (VHH)
VHH: EVQLQASGGGLVQTGDSLRLSCADSGSTFRNYNIGWFRQTPGQAREFVAAVSRTGISTHVADSLQGRFTISRDNAKNTVYLQMNSLKPEDTAVYSCAAGRPGVGAVNRAMDYDYWGQGTQVTVSS
notes: Expressed with a His tag or a Strep tag; also called R3VQ(His)-NH2 1; R3VQ-NH2 1; not shown: 6-Histidine tag (pET23) or Strep tag (pASK IBA2) from the vector

In the experiment “VHH R3VQ” the target is B2. Description: competition ELISA, soluble Aβ fragment against antigen-coated plate. Here is the method: (§1) The binding affinity of VHHs was determined as previously described (Friguet B. et al., 1985, Immunol Methods, 77:305-19). Briefly, various concentrations of Aβ peptides (A13 fragments 1-16, 10-20, 15-25, 22-35 and 29-40) were incubated in solution overnight at 4° C. with a known quantity of VHH until equilibrium was reached. The VHH concentration used was determined by preliminary ELISA calibrations. Each mixture (100 μl) was transferred to a well of a microtiter plate previously coated with antigen and was incubated for 20 min at 4° C. The plates were washed with buffer 0.1% Tween 20 in PBS and bound VHHs were detected by adding beta-galactosidase-conjugated goat anti-rabbit Igs (Biosys, Compiegne, France) and 4-methylumbelliferyl […] (Sigma). Fluorescence was read (Fluoroskan, Labsystem, Finland) at 460 nm, after excitation at 355 nm. KD was estimated from the slope of the regression curve obtained by plotting the reciprocal of the fraction of bound antibody versus the reciprocal of the molar concentration of antigen.

A further experiment has as its target T1, A-beta 42 peptide (Aβ42) (human).
T1 construct: Synthetic peptide (Bachem); incubated to give the fibrillar form for immunisation; also called Aβ1-42; fibrillar synthetic Aβ42 peptide
Description: competition ELISA in solution (Friguet method). As to the method:
as §1

A further experiment deals with T2, Aβ fragment 1-16 (human).
T2 construct: also called Aβ1-16; Aβ16
T2 peptide: DAEFRHDSGYEVHHQK
The experiment is described as follows: competition ELISA with soluble Aβ fragments. As to the method:
as §1

Another experiment addresses T3, Aβ fragment 29-40 (human).
T3 peptide: GAIIGLMVGGVV
Description: competition ELISA with soluble Aβ fragments. Here is the method: as §1

For another experiment, the target named is T4, A-beta 40 (Aβ40) (human).
T4 construct: ELISA methods say 'A-beta 40 or A-beta 42 (preferably A-beta 40)'; also called Aβ1-40; biotinylated A-beta 40
The experiment is described as follows: ELISA on biotinylated Aβ40 (or Aβ42).

T4 sequence (peptide, as listed by the source): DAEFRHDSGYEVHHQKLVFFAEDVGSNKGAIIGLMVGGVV
T1 sequence (peptide, as listed by the source): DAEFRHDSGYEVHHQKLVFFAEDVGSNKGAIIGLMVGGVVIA

B1: Aβ fragment 16-35 (peptide)
peptide: KLVFFAEDVGSNKGAIIGLM
notes: this fragment is not in the list of fragments tested (1-16, 10-20, 15-25, 22-35, 29-40); also called AP 16-35
B1: the IC50 with VHH R3VQ was found to be 16 nM.

B2: the dissociation constant Kd with A-beta 42 peptide (Aβ42) amounted to 17 nM. For the same molecule, the binding result with Aβ fragment 1-16 and with Aβ fragment 29-40 was “no binding” in each case.

B3: R3VQ(His)-N-(DOTA/Gd) conjugate 2c (VHH)
VHH: EVQLQASGGGLVQTGDSLRLSCADSGSTFRNYNIGWFRQTPGQAREFVAAVSRTGISTHVADSLQGRFTISRDNAKNTVYLQMNSLKPEDTAVYSCAAGRPGVGAVNRAMDYDYWGQGTQVTVSS
modifications: DOTA/Gd randomly distributed on lysine residues; average Gd/protein (1) 2 (3)
notes: Non-site-specific conjugate; not shown: 6-Histidine tag from pET23
For B3, in the experiment with A-beta 40 (Aβ40), the “binding in ELISA compared to the original VHH 1” value was around 10%.

B4: R3VQ(His)-N-(DOTA/Gd) conjugate 2d (VHH)
VHH: EVQLQASGGGLVQTGDSLRLSCADSGSTFRNYNIGWFRQTPGQAREFVAAVSRTGISTHVADSLQGRFTISRDNAKNTVYLQMNSLKPEDTAVYSCAAGRPGVGAVNRAMDYDYWGQGTQVTVSS
modifications: DOTA/Gd randomly distributed on lysine residues; average Gd/protein (1) 2 (3)
notes: as for B3
With B4, the “binding in ELISA compared to the original VHH 1” value with A-beta 40 (Aβ40) is around 10%.
